Test results from publication PMC6409784, “Chlorambucil Conjugated Ugi Dendrimers with PAMAM-NH2 Core and Evaluation of Their Anticancer Activity” (Pharmaceutics, 2019).
Where two headings read alike, the source gives them in different places.

How the values were obtained:
Solubility of dendrimers = conditions: at 20 mg/mL
PC-3 cells [1] = conditions: read-out: IC50, CV assay, PC-3, 72 h
PC-3 cells [2] = conditions: read-out: IC50, MTT assay, PC-3, 72 h
NIH3T3 fibroblasts [3] = test: CV viability assay on non-cancerous fibroblasts; assay type: cell-based, mouse; conditions: at the IC50 determined for PC-3 (7.3 µM), CV and MTT, 72 h
NIH3T3 fibroblasts [4] = conditions: read-out: IC50 NIH3T3, MTT; NIH3T3 mouse fibroblasts, 72 h, MTT assay
[5] = tested on: PC-3 prostate cancer cell line; test: Viability by CV and MTT assays (fast screening / dose response); assay type: cell-based, human; conditions: 20 µM free chlorambucil, 72 h
PC-3 cells [6] = test: cells; conditions: Homo sapiens, PC-3, 72 h, read-out: IC50, MTT assay, PC-3
PC-3 cells [7] = test: cells; conditions: Homo sapiens, PC-3, 72 h, read-out: IC50, CV assay, PC-3

SMILES	Solubility (Solubility of dendrimers)	further results
CC(C)C(C(=O)NCCOCCOCCNC(=O)OC(C)(C)C)N(CCNC(=O)CCN(CCC(=O)NCCN(C(=O)CCCc1ccc(N(CCCl)CCCl)cc1)C(C(=O)NCCOCCOCCNC(=O)OC(C)(C)C)C(C)C)CCN(CCC(=O)NCCN(C(=O)CCCc1ccc(N(CCCl)CCCl)cc1)C(C(=O)NCCOCCOCCNC(=O)OC(C)(C)C)C(C)C)CCC(=O)NCCN(C(=O)CCCc1ccc(N(CCCl)CCCl)cc1)C(C(=O)NCCOCCOCCNC(=O)OC(C)(C)C)C(C)C)C(=O)CCCc1ccc(N(CCCl)CCCl)cc1 (centres unmarked) [Dendrimer 1a]	Low	
CC(C)C(C(=O)NCCOCCOCCN)N(CCNC(=O)CCN(CCC(=O)NCCN(C(=O)CCCc1ccc(N(CCCl)CCCl)cc1)C(C(=O)NCCOCCOCCN)C(C)C)CCN(CCC(=O)NCCN(C(=O)CCCc1ccc(N(CCCl)CCCl)cc1)C(C(=O)NCCOCCOCCN)C(C)C)CCC(=O)NCCN(C(=O)CCCc1ccc(N(CCCl)CCCl)cc1)C(C(=O)NCCOCCOCCN)C(C)C)C(=O)CCCc1ccc(N(CCCl)CCCl)cc1 (centres unmarked) [Dendrimer 1b]	High	IC50 (PC-3 cells [1]): 3.65 ± 0.56 µM; IC50 (PC-3 cells [2]): 7.29 ± 1.18 µM; effect on NIH3T3 cell growth (NIH3T3 fibroblasts [3]): did not affect NIH3T3 cell growth at all; IC50 (NIH3T3 fibroblasts [4]): 74.4 ± 2.31 µM
COC(=O)CCCNC(=O)C(C(C)C)N(CCNC(=O)CCN(CCC(=O)NCCN(C(=O)CCCc1ccc(N(CCCl)CCCl)cc1)C(C(=O)NCCCC(=O)OC)C(C)C)CCN(CCC(=O)NCCN(C(=O)CCCc1ccc(N(CCCl)CCCl)cc1)C(C(=O)NCCCC(=O)OC)C(C)C)CCC(=O)NCCN(C(=O)CCCc1ccc(N(CCCl)CCCl)cc1)C(C(=O)NCCCC(=O)OC)C(C)C)C(=O)CCCc1ccc(N(CCCl)CCCl)cc1 (centres unmarked) [Dendrimer 2a]	Low	
COC(=O)CCCNC(=O)C(C(C)C)N(CCNC(=O)CCN(CCC(=O)NCCN(C(=O)CCCc1ccc(N(CCCl)CCCl)cc1)C(C(=O)NCCCC(=O)OC)C(C)C)CCN(CCC(=O)NCCN(C(=O)CCCc1ccc(N(CCCl)CCCl)cc1)C(C(=O)NCCCC(=O)OC)C(C)C)CCC(=O)NCCN(C(=O)CCCc1ccc(N(CCCl)CCCl)cc1)C(C(=O)NCCCC(=O)OC)C(C)C)C(=O)CCCC[C@@H]1SC[C@@H]2NC(=O)N[C@@H]21 (some centres unmarked) [Dendrimer 3a]	Low	
CC(C)C(C(=O)NCCCC(=O)O)N(CCNC(=O)CCN(CCC(=O)NCCN(C(=O)CCCc1ccc(N(CCCl)CCCl)cc1)C(C(=O)NCCCC(=O)O)C(C)C)CCN(CCC(=O)NCCN(C(=O)CCCc1ccc(N(CCCl)CCCl)cc1)C(C(=O)NCCCC(=O)O)C(C)C)CCC(=O)NCCN(C(=O)CCCc1ccc(N(CCCl)CCCl)cc1)C(C(=O)NCCCC(=O)O)C(C)C)C(=O)CCCC[C@@H]1SC[C@@H]2NC(=O)N[C@@H]21 (some centres unmarked) [Dendrimer 3b]	High	
COC(=O)CCCNC(=O)C(C(C)C)N(CCNC(=O)CCN(CCC(=O)NCCN(C(=O)CCCC[C@@H]1SC[C@@H]2NC(=O)N[C@@H]21)C(C(=O)NCCCC(=O)OC)C(C)C)CCN(CCC(=O)NCCN(C(=O)CCCC[C@@H]1SC[C@@H]2NC(=O)N[C@@H]21)C(C(=O)NCCCC(=O)OC)C(C)C)CCC(=O)NCCN(C(=O)CCCc1ccc(N(CCCl)CCCl)cc1)C(C(=O)NCCCC(=O)OC)C(C)C)C(=O)CCCC[C@@H]1SC[C@@H]2NC(=O)N[C@@H]21 (some centres unmarked) [Dendrimer 5a]	Low	
CC(C)C(C(=O)NCCCC(=O)O)N(CCNC(=O)CCN(CCC(=O)NCCN(C(=O)CCCC[C@@H]1SC[C@@H]2NC(=O)N[C@@H]21)C(C(=O)NCCCC(=O)O)C(C)C)CCN(CCC(=O)NCCN(C(=O)CCCC[C@@H]1SC[C@@H]2NC(=O)N[C@@H]21)C(C(=O)NCCCC(=O)O)C(C)C)CCC(=O)NCCN(C(=O)CCCc1ccc(N(CCCl)CCCl)cc1)C(C(=O)NCCCC(=O)O)C(C)C)C(=O)CCCC[C@@H]1SC[C@@H]2NC(=O)N[C@@H]21 (some centres unmarked) [Dendrimer 5b]	High	
O=C(O)CCCc1ccc(N(CCCl)CCCl)cc1 [chlorambucil]		activity of free agent on PC-3 cells [5]: almost no activity; IC50 (PC-3 cells [6]): > 100 µM; IC50 (PC-3 cells [7]): > 100 µM
